Measured values published in paper PMC3406103.

Tested on: C/EBPβ (endogenous, HaCaT nuclear extract)
Assay: EMSA
Conditions: 10 mM Tris-HCl pH 7.5, 50 mM NaCl, 1 mM EDTA, 15% glycerol, 1 mg/ml BSA, 25 µg/ml poly(dI-dC), 11.5 mM DTT, 26 µg/ml aprotinin, 1.5 mM PMSF, 0.5 mg/ml salmon …; scale: % of pLXSN control, normalized to C/EBPβ level

CCL20 promoter nt 734-748 was tested, and the binding signal was less than 50.
